Target: T1, geranyl diphosphate synthase small subunit from Mentha, full-length preprotein encoded by the cDNA insert of … (Mentha piperita (peppermint oil gland …))
T1 construct: also called Mp13.18 protein; 28 kDa protein
T1 chain: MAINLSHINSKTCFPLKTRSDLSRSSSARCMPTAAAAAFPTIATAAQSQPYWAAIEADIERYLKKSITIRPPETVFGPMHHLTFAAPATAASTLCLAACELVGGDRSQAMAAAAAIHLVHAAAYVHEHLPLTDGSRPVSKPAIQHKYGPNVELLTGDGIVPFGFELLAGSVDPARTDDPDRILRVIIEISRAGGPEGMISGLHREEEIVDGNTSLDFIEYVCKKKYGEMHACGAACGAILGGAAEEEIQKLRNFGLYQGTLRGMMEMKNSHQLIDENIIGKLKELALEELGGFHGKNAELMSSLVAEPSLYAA
Assay: co-expression in E. coli, anion-exchange chromatography, activity assay
Protocol: The transformed bacteria were then induced with 1 mM IPTG and allowed to express for 24 h at 15° C. The bacteria were harvested by centrifugation, washed once with Tris buffer (pH 7.0) containing 50 mM KCl, and resuspended in 25 ml sonication buffer (25 mM Hepes, pH 7.2, 10 mM MgCl₂, 10% glycerol, 1 mM DTT, 1 mM EDTA and 1 mM benzamidine) and disrupted by brief sonication (VirSonic, 25% power, two 30 s bursts, 0-4° C.). The sonicate was centrifuged at 12,000 g (30 min), then at 195,000 g (90 min). The supernatant (soluble enzyme fraction) was loaded onto an HR 5/5 column containing Source 15Q anion-exchange separation medium (Pharmacia Biotech) that had been equilibrated with Hepes buffer (25 mM, pH 7.5) containing 10% glycerol, 10 mM MgCl₂, 1 mM DTT and 1 mM benzamidine. A step gradient of KCl (0-85 mM (10 ml); 85 mM (15 ml); 85-600 mM (20 ml)) was applied, and 2 ml fractions were collected and assayed for prenyltransferase activity using [¹⁴C]IPP and DMAPP (or GPP or FPP) as cosubstrates as described above. […]

binding result: binds
B1: geranyl diphosphate synthase large subunit from peppermint (Mentha piperita), full-length preprotein encoded by the cDNA insert of pMp23.10, expressed from … (enzyme)
chain: MSALVNPVAKWPQTIGVKDVHGGRRRRSRSTLFQSHPLRTEMPFSLYFSSPLKAPATFSVSAVYTKEGSEIRDKDPAPSTSPAFDFDGYMLRKAKSVNKALEAAVQMKEPLKIHESMRYSLLAGGKRVRPMLCIAACELVGGDESTAMPAACAVEMIHTMSLMHDDLPCMDNDDLRRGKPTNHMAFGESVAVLAGDALLSFAFEHVAAATKGAPPERIVRVLGELAVSIGSEGLVAGQVVDVCSEGMAEVGLDHLEFIHHHKTAALLQGSVVLGAILGGGKEEEVAKLRKFANCIGLLFQVVDDILDVTKSSKELGKTAGKDLVADKTTYPKLIGVEKSKEFADRLNREAQEQLLHFHPHRAAPLIALANYIAYRDN
notes: also called Mp23.10 protein; pMp23.10 protein
